Laboratory results published in patent publication US20160280792A1 (Kyowa Kirin, published 2016).

Legend:
Experiment in all cases: flow cytometry, labelled antibody at 1 µg/ml, HEK293T cells expressing the construct
[1] = molecular target: T1, IL-3Rα/GM-CSFRα chimeric protein, region 3 (91-STWILFPE-98) of IL-3Rα replaced by GM-CSFRα sequence, on … (human, UniProt P26951 19-378)
T1 construct: also called Region 3 (A)
T1 chain: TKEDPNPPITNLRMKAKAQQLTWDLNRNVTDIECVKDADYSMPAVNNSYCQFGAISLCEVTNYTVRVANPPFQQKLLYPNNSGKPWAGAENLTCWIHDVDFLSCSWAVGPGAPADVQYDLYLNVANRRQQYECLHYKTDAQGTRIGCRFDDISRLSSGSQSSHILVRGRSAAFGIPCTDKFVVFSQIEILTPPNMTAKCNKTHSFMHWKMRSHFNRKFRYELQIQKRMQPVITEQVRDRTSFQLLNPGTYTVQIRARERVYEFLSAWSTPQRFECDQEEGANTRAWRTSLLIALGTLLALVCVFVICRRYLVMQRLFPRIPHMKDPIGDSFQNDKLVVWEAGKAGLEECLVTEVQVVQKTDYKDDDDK

[2] = molecular target: T2, IL-3Rα/GM-CSFRα chimeric protein, region 6 (182-ILVRGRS-188) of IL-3Rα replaced by GM-CSFRα sequence, on … (human, UniProt P26951 19-378)
T2 construct: also called Region 6 (B)
T2 chain: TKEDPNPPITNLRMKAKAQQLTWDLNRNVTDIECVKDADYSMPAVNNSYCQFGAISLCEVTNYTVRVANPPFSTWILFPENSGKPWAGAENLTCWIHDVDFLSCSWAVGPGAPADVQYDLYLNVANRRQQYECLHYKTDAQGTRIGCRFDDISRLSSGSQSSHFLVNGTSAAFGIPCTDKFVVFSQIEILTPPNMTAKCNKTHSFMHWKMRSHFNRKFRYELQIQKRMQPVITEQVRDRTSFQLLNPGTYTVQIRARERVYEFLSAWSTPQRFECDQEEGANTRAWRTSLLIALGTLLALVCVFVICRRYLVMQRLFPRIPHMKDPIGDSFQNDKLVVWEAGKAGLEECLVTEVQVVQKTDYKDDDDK

[3] = molecular target: T3, IL-3Rα/GM-CSFRα chimeric protein, region 4 (97-…-104) of IL-3Rα replaced by GM-CSFRα sequence, on HEK293T … (human, UniProt P26951 19-378)
T3 construct: also called Region 4 (A-B)
T3 chain: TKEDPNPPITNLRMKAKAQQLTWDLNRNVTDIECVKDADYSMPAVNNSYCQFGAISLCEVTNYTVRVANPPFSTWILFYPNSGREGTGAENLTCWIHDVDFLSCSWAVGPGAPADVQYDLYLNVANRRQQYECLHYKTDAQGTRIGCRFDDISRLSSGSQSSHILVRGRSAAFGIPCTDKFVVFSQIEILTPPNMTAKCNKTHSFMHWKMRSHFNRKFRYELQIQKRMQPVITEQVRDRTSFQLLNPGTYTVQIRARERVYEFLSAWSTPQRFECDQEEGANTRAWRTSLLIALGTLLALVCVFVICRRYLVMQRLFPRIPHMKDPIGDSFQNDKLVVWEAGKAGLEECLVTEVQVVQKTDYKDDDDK

[4] = molecular target: T4, IL-3Rα/GM-CSFRα chimeric protein, region 7 (192-GIPCTDK-198) of IL-3Rα replaced by GM-CSFRα sequence, on … (human, UniProt P26951 19-378)
T4 construct: also called Region 7 (B)
T4 chain: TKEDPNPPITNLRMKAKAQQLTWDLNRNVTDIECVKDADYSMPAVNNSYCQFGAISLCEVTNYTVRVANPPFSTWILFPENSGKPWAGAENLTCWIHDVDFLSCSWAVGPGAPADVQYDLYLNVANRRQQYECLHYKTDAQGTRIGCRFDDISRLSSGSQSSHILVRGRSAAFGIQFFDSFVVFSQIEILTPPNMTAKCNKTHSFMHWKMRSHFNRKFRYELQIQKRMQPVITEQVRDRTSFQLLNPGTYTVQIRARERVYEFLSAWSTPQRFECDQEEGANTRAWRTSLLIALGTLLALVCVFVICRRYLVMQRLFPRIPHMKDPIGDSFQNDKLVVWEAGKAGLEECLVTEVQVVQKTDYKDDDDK

Measured: binding result

B1: Old19 anti-human IL-3Rα human antibody (antibody, human IgG1, V domains shown)
VH: QVQLVQSGAEVKKPGSSVKVSCKASGGTFSSYAISWVRQAPGQGLEWVGGIIPIFGTANYAQKFQGRVTITADESTSTAYMELSSLRSEDTAVYYCARGHKYGPYYFDYWGQGTLVTVSS
VL: DIQMTQSPSSLSASVGDRVTITCRASQGISSWLAWYQQKPEKAPKSLIYAASSLQSGVPSRFSGSGSGTDFTLTISSLQPEDFATYYCQQYNSYPRTFGQGTKVEIK
notes: Human antibody; recombinant form in N5KG1-Val Lark vector (human IgG1, kappa)
no binding (tested: 1 µg/ml): [1] | [2] | [3] | [4]
